This is an account of results in US20220251236A1 (Boehringer Ingelheim, published 2022).

In one assay the target is T1, Human DLL3-His (human, UniProt Q9NYJ7 27-492).
T1 construct: also called huDLL3-His; hu DLL3
T1 sequence: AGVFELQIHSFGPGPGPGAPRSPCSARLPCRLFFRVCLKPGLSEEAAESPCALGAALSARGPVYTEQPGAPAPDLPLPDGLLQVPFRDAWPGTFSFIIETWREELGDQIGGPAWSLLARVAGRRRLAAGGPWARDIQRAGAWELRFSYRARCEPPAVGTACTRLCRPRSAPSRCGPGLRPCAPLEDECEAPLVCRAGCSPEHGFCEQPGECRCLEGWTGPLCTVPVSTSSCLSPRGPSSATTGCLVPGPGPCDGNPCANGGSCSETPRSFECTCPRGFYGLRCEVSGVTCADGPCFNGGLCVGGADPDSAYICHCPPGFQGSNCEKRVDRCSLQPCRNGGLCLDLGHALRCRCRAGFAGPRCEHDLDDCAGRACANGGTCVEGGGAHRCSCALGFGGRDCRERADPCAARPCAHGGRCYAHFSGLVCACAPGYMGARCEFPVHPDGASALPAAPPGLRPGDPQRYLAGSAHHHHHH
In words: SPR (ProteOn XPR36), bispecific captured on protein A/G, hu DLL3 as analyte, Example 4B. How it is done:
(§1) The binding affinity of purified DLL3/CD3 bispecific constructs for recombinant human DLL3-ECD and Fc-fusion protein of human CD3 εγ subunits was determined by Surface Plasmon Resonance (SPR), using a ProteOn XPR36 instrument (Bio-Rad).
For binding kinetic determination to DLL3, anti-DLL3/CD3 molecules were captured individually on the protein A/G surface vertically for 200 sec at a flowrate of 30 μl/min. The baseline was stabilized by injecting PBS-T-EDTA for 60 sec at a flowrate of 30 μl/min horizontally. The analyte (hu DLL3) was injected horizontally over the captured antibody for 300 sec at a flowrate of 30 μl/min and a dissociation for 1800 sec.

Another assay concerns the target T2, EGF4+5.
T2 construct: also called Hu DLL3 EGF4+5 on HEK293 cells
T2 membrane-anchored DLL3 subdomain construct: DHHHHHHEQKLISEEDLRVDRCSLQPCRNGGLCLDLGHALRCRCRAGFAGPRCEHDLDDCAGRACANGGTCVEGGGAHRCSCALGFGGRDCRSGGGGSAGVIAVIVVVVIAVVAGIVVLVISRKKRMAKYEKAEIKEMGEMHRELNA
In words: flow cytometry on HEK293 cells expressing the DLL3 subdomain construct, PE anti-human secondary, control: secondary antibody only. How it is done: (§2) DLL3/CD3 binding proteins were produced by transient transfection of CHO-E cells with the pTT5 vectors carrying the chain-encoding genes, as described in Example 2. […] Bound molecules were detected with PE-conjugated anti-human secondary antibody (Sigma-Aldrich, #P8047). As negative control, cells were incubated with secondary antibody only.
(§3) The samples were measured by flow-cytometry. […] The sequences of the epitope domains are listed in Example 5, Table 3.
(Flow cytometry measures light scatter and fluorescence of single cells or particles in a stream.)

The next assay addresses T3, EGF5+6.
T3 construct: also called Hu DLL3 EGF5+6 on HEK293 cells
T3 membrane-anchored DLL3 subdomain construct: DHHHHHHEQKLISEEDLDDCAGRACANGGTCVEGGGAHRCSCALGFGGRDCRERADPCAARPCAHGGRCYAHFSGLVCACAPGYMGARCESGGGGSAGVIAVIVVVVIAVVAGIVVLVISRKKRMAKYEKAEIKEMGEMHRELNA
The description is as above. How it is done: as §2, §3

For assay [1], the target named is T4, EGF6+MEMBRANE PROXIMAL PEPTIDE.
T4 construct: also called Hu DLL3 EGF6+membrane proximal peptide on HEK293 cells
T4 membrane-anchored DLL3 subdomain construct: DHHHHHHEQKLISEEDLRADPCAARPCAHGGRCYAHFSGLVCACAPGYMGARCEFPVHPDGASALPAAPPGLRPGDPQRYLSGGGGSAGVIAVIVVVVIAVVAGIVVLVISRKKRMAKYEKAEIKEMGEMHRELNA
The description is as above. How it is done: as §2, §3

In the next assay the target is T5, EGF2+3.
T5 construct: also called Hu DLL3 EGF2+3 on HEK293 cells
T5 membrane-anchored DLL3 subdomain construct: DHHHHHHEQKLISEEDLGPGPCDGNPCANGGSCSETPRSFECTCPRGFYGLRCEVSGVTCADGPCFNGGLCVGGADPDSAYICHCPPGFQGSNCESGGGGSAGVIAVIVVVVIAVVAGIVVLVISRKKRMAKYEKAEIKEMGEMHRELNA
Described as above. Here is the method: as §2, §3

In a further assay the target is T6, EGF3+4.
T6 construct: also called Hu DLL3 EGF3+4 on HEK293 cells
T6 membrane-anchored DLL3 subdomain construct: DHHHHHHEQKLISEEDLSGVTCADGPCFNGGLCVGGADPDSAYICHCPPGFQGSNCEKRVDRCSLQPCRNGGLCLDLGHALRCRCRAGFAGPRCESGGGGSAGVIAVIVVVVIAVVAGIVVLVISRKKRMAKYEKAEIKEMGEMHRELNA
Described as above. Here is the method:
as §2, §3

For another assay, the target named is T7, EGF1+2.
T7 construct: also called Hu DLL3 EGF1+2 on HEK293 cells
T7 membrane-anchored DLL3 subdomain construct: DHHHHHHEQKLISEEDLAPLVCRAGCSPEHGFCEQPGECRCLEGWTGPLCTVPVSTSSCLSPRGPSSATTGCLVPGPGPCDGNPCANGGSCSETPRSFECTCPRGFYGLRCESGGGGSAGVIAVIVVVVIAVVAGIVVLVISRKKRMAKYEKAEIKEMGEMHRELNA
In words: flow cytometry on HEK293 cells expressing the DLL3 subdomain construct, 1.6 nM binder, PE anti-human secondary, control: secondary antibody only. How it is done: as §2, §3

Assay [2] concerns the target T8, trypsin inhibitor from glycine max soybean (Glycine max (soybean)).
T8 construct: also called Tryp
In words: SPR (Biacore T200), trypsin inhibitor on CM5 chip, sample at 1 µM. From the text:
To prepare the surface for the non-specific binding experiment, chicken egg white lysozyme and trypsin inhibitor from glycine max soybean were coupled manually to a series S CM5 chip with the surface density of 3000-5000 RU using the amine coupling kit according to the manufacture instructions.
For orientation: Surface plasmon resonance follows binding to a sensor surface in real time, without labels.

The target in the next assay is T9, Human CD3 E+G HuFc-6xHis (human).
T9 construct: also called hu CD3εγ-Fc
In words: SPR (ProteOn XPR36), HuCD3E_HuCD3G-Fc amine-coupled, bispecific as analyte, Example 4B. Here is the method:
as §1
For binding kinetic determination to CD3, HuCD3E_HuCD3G-Fc (dissolved in pH 4.5 acetate) was immobilized directly onto the sensor surface through amine coupling for 360 sec at a flowrate of 30 μl/min vertically. The baseline was stabilized by injecting PBS-T-EDTA for 60 sec at a flowrate of 30 μl/min horizontally. The analytes (all anti-DLL3/CD3 molecules) were injected horizontally over the captured antibody for 600 sec at a flowrate of 30 μl/min and a dissociation for 1800 sec.

Some results are limits rather than exact numbers.

T8 sequence (P01070 25-205): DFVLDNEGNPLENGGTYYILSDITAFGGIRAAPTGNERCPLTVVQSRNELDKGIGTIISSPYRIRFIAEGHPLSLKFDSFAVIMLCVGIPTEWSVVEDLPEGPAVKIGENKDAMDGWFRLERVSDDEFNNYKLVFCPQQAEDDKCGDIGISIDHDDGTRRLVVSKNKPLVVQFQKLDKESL
T9 sequence (chain, as listed by the source limits assumed): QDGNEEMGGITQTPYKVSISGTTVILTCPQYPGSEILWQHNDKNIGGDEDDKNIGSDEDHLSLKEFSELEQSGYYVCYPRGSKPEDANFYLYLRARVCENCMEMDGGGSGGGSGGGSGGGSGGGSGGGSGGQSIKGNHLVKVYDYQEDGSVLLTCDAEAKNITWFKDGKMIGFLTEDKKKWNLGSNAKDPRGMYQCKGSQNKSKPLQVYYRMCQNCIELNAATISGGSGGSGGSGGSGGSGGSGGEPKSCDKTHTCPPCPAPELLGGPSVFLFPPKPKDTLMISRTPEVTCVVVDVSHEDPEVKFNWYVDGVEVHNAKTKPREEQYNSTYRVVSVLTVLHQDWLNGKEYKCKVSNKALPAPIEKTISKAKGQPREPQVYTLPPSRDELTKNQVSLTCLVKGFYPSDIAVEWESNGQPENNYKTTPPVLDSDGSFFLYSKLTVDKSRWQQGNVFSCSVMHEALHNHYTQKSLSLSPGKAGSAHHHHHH

B1: DLL3#10/CD3#1 (bispecific antibody, human IgG1, kappa, lambda, L234A L235A)
chain 1: EIVLTQSPGTLSLSPGERATLSCRASQSLNSIFLAWYQQKPGQAPWLLIYGASSRATGIPDRFSGSGSGTDFTLTISRLEPEDFAVYFCQQYGGSMNTFGQGTKLEIKRTVAAPSVFIFPPSDEQLKSGTASVVCLLNNFYPREAKVQWKVDNALQSGNSQESVTEQDSKDSTYSLSSTLTLSKADYEKHKVYACEVTHQGLSSPVTKSFNRGECGGGGSEGKSSGSGSESKSTEGKSSGSGSESKSTGGGGSQVQLVQSGAEVKKPGASVKVSCKASGYTFTGYYMHWVRLAPGQGLEWMGWINPNSGGTIFAQRFQGRVTMTRDTSISTVYMDLNRLRSDDTAVYYCARDFGDTVGNAFDIWGQGTMVTVSSASTKGPSVFPLAPSSKSTSGGTAALGCLVKDYFPEPVTVSWNSGALTSGVHTFPAVLQSSGLYSLSSVVTVPSSSLGTQTYICNVNHKPSNTKVDKRVEPKSCDKTHTCPPCPAPEAAGGPSVFLFPPKPKDTLMISRTPEVTCVVVDVSHEDPEVKFNWYVDGVEVHNAKTKPREEQYNSTYRVVSVLTVLHQDWLNGKEYKCKVSNKALPAPIEKTISKAKGQPREPQVYTLPPSREEMTKNQVSLWCLVKGFYPSDIAVEWESNGQPENNYKTTPPVLDSDGSFFLYSKLTVDKSRWQQGNVFSCSVMHEALHNHYTQKSLSLSPG
chain 2: EAVVTQEPSLTVSPGGTVTLTCRSSTGAVTTSNYANWVQEKPGQLPRGLIGGTNKRAPWVPARFSGSLLGGKAALTLSGAQPEDEAEYFCALWYSNLWVFGGGTKLTVLGQPKAAPSVTLFPPSSEELQANKATLVCLISDFYPGAVKVAWKADGSPVNTGVETTTPSKQSNNKYAASSYLSLTPEQWKSHRSYSCQVTHEGSTVEKTVAPAECSGGGGSEGKSSGSGSESKSTEGKSSGSGSESKSTGGGGSEVQLVESGGGLVQPGGSLKLSCAASGFTFNTYAMNWVRQAPGKGLEWVARIRSKYNNYATYYADSVKDRFTISRDDSKNTAYLQMNNLKTEDTAVYYCVRHGNFGNSYVSWFAYWGQGTLVTVSAASTKGPSVFPLAPSSKSTSGGTAALGCLVKDYFPEPVTVSWNSGALTSGVHTFPAVLQSSGLYSLSSVVTVPSSSLGTQTYICNVNHKPSNTKVDKRVEPKSCDKTHTCPPCPAPEAAGGPSVFLFPPKPKDTLMISRTPEVTCVVVDVSHEDPEVKFNWYVDGVEVHNAKTKPREEQYNSTYRVVSVLTVLHQDWLNGKEYKCKVSNKALPAPIEKTISKAKGQPREPQVYTLPPSREEMTKNQVSLSCAVKGFYPSDIAVEWESNGQPENNYKTTPPVLDSDGSFFLVSKLTVDKSRWQQGNVFSCSVMHEALHNRFTQKSLSLSPG
notes: Heterodimer of one DLL3 chain and one CD3 chain (scFab-Fc, knob-in-hole)
Usually Kd stands for the free concentration of one partner at which half of the binding sites on the other are occupied at equilibrium, for simple one-to-one binding. Higher therefore signals a looser complex. Take B1: the Kd in the assay with Human DLL3-His was 0.141 nM. In addition, the binding result in the assay with EGF4+5 is listed as “no binding (tested: 1.6 nM)”; in the assay with EGF5+6 it was “no binding (tested: 1.6 nM)”; in assay [1], “no binding (tested: 1.6 nM)”; with EGF2+3, “no binding (tested: 1.6 nM)”; with EGF3+4 it was “no binding (tested: 1.6 nM)”; with EGF1+2, “binds”. In addition, the “Non-specific binding (RU)” value in assay [2] came to 12 RU.

B2: DLL3#12/CD3#1 (bispecific antibody, human IgG1, kappa, lambda, L234A L235A)
chain 1: QVVLTQSPAIMSASPGEKVTITCSASSSVTYIHWFQQNPGTSPKLWIYRTSYLASGVPARFSGSGSGTSYSLTISRMEAEDAATYYCQQRSSYPRTFGGGTKLEIKRTVAAPSVFIFPPSDEQLKSGTASVVCLLNNFYPREAKVQWKVDNALQSGNSQESVTEQDSKDSTYSLSSTLTLSKADYEKHKVYACEVTHQGLSSPVTKSFNRGECGGGGSEGKSSGSGSESKSTEGKSSGSGSESKSTGGGGSQVQLQQPGAEFVQPGSSVKMSCKASGYAFSDYWITWVKQRPGQGLEWIGDIYPGSGSTKSSEKFKNRATLTADTSSSTAYIQFSSLTPEDSAVYYCVSLYYYGSYYLDTWGQGTTLTVSSASTKGPSVFPLAPSSKSTSGGTAALGCLVKDYFPEPVTVSWNSGALTSGVHTFPAVLQSSGLYSLSSVVTVPSSSLGTQTYICNVNHKPSNTKVDKRVEPKSCDKTHTCPPCPAPEAAGGPSVFLFPPKPKDTLMISRTPEVTCVVVDVSHEDPEVKFNWYVDGVEVHNAKTKPREEQYNSTYRVVSVLTVLHQDWLNGKEYKCKVSNKALPAPIEKTISKAKGQPREPQVYTLPPSREEMTKNQVSLWCLVKGFYPSDIAVEWESNGQPENNYKTTPPVLDSDGSFFLYSKLTVDKSRWQQGNVFSCSVMHEALHNHYTQKSLSLSPG
chain 2: EAVVTQEPSLTVSPGGTVTLTCRSSTGAVTTSNYANWVQEKPGQLPRGLIGGTNKRAPWVPARFSGSLLGGKAALTLSGAQPEDEAEYFCALWYSNLWVFGGGTKLTVLGQPKAAPSVTLFPPSSEELQANKATLVCLISDFYPGAVKVAWKADGSPVNTGVETTTPSKQSNNKYAASSYLSLTPEQWKSHRSYSCQVTHEGSTVEKTVAPAECSGGGGSEGKSSGSGSESKSTEGKSSGSGSESKSTGGGGSEVQLVESGGGLVQPGGSLKLSCAASGFTFNTYAMNWVRQAPGKGLEWVARIRSKYNNYATYYADSVKDRFTISRDDSKNTAYLQMNNLKTEDTAVYYCVRHGNFGNSYVSWFAYWGQGTLVTVSAASTKGPSVFPLAPSSKSTSGGTAALGCLVKDYFPEPVTVSWNSGALTSGVHTFPAVLQSSGLYSLSSVVTVPSSSLGTQTYICNVNHKPSNTKVDKRVEPKSCDKTHTCPPCPAPEAAGGPSVFLFPPKPKDTLMISRTPEVTCVVVDVSHEDPEVKFNWYVDGVEVHNAKTKPREEQYNSTYRVVSVLTVLHQDWLNGKEYKCKVSNKALPAPIEKTISKAKGQPREPQVYTLPPSREEMTKNQVSLSCAVKGFYPSDIAVEWESNGQPENNYKTTPPVLDSDGSFFLVSKLTVDKSRWQQGNVFSCSVMHEALHNRFTQKSLSLSPG
notes: as for B1
With B2, the Kd in the assay with Human DLL3-His is less than 0.02 nM; with Human CD3 E+G HuFc-6xHis, 2 nM. Further, the binding result is given as “no binding (tested: 1.6 nM)” in the assay with EGF4+5; “no binding (tested: 1.6 nM)” in the assay with EGF5+6; “no binding (tested: 1.6 nM)” in assay [1]; “no binding (tested: 1.6 nM)” with EGF2+3; “no binding (tested: 1.6 nM)” with EGF3+4; “binds” in the assay with EGF1+2. Further, in assay [2], the “Non-specific binding (RU)” value came out at 9 RU.
